This passage reports Kd and IC50 results from patent US5821046A, “RNA oligonucleotides that bind HIV tat protein” (RiboTargets Holdings PLC, priority 1990, dated 1998).

Series [1] deals with T1, HIV-1 Tat (Human immunodeficiency virus 1, UniProt P04608 P04608:1-86). The series is described as follows: filter; D1/2 420 nM in table (290 nM in text); no complex in EMSA. Particulars: stem-loop without bulge. A general note: In EMSA bound probe runs differently from free probe, usually more slowly.
The target of series [2] is T1, HIV-1 Tat. The series is described as follows: filter; D1/2 680 nM; no complex in EMSA. Particulars: stem-loop, upper stem disrupted.
The target of series [3] is T1, HIV-1 Tat. Description: filter; no complex in EMSA. The conditions noted are these: stem-loop.
The target in series [4] is T1, HIV-1 Tat. The series is described as follows: competition; D1/2; unmodified 18+15 duplex 65 nM; 59-mer 18 nM. Particulars: duplex with bulge.
For series [5], the target named is T1, HIV-1 Tat. The series is described as follows: competition; D1/2; 18+15 duplex probe; 59-mer 18 nM. The conditions noted are these: duplex with UUU bulge, no apical loop.
In series [6] the target is T1, HIV-1 Tat. The series is described as follows: competition; D1/2 vs 10 nM 59-mer probe (59-mer 40 nM); 60 nM vs 29-mer probe. Particulars: hairpin with U-rich bulge and loop.
In series [7] the test system is Rev. Particulars: references 33, 34; read-out: Kd of Rev-RRE complex; cited from earlier work.
For series [8], the target named is T1, HIV-1 Tat. The series is described as follows: filter; D1/2 160 nM; about 2.5-fold lower affinity; complex in EMSA. The conditions noted are these: stem-loop with 2-nt bulge.

B1: TAR delta U (bulge) (ssRNA)
RNA: GGGUCUCUCUGGUUAGACCAGAGAGCCUGGGAGCUCUCUGGCUAACUAGGGAACCC
B1: the Kd (in general, the equilibrium constant for the complex coming apart) in series [1] was greater than 70 nM.

B2: TAR G28 to C28 (ssRNA)
RNA: GGGUCUCUCUGGUUAGACCAGAUUUGACCCUGGGAGCUCUCUGGCUAACUAGGGAACCC
Regarding B2, the Kd in series [2] was greater than 100 nM.

B3: Antisense TAR (ssRNA)
RNA: GGGUUCCCUAGUUAGCCAGAGAGCUCCCAGGCUCAAAUCUGGUCUAACCAGAGAGACCC
As for B3, the Kd in series [3] was greater than 140 nM.

B4: 18+15 duplex 4-thioT-25 (dsRNA)
RNA 1: AGCCAGAUUTGAGCAGCU
RNA 2: AGCUGCUCUCUGGCU
modifications: 4-thio-2'-deoxythymidine at U25 (nt 10) [10 (strand 1, 4-thio-2'-deoxythymidine)]
Regarding B4, the IC50 (commonly the concentration that inhibits the measured activity by half) in series [4] amounted to 12 nM.

B5: 18-mer + 15-mer TAR duplex (dsRNA)
RNA 1: AGCCAGAUUUGAGCAGCU
RNA 2: AGCUGCUCUCUGGCU
In turn, B5 gave an IC50 in series [5] of 65 nM. In other words, the double-digit nanomolar range.
Regarding GCCAGAUUUGAGCCUGGGAGCUCUCUGGC (ssRNA) [29-mer top part of TAR], the 50% inhibitory concentration (IC50) in series [6] was 100 nM.

B6: RRE: rev-responsive element, 243-nucleotide long sequence within the env gene (nucleic acid)
chain: CAGUGGGAAUAGGAGCUUUGUUCCUUGGGUUCUUGGGAGCAGCAGGAAGCACUAUGGGCGCAGCGUCAAUGACGCUGACGGUACAGGCCAGACAAUUAUUGUCUGGUAUAGUGCAGCAGCAGAACAAUUUGCUGAGGGCUAUUGAGGCGCAACAGCAUCUGUUGCAACUCAAGUCUGGGGCAUCAAGCAGCUCCAGGCAAGAAUCCUGGCUGUGGAAAGAUACCUAAAGGAUCAACAGCUCCU
Consider B6, for which the Kd in series [7] is 3 nM.

B7: HIV-2 TAR RNA first stem-loop (ssRNA)
RNA: CUGCGGAGAGGCUGGCAGAUUGAGCCCUGGGAGGUUCUCUCCAGCACUAGCAG
With B7, the Kd in series [8] came out at 30 nM.
